Assay results as given in the supplement of paper PMC5998384.

What was measured:
[1] = system: HeLa Kyoto; assay: solubility in G1/S (NP-40 vs SDS abundance) (log2 ratio); higher = more soluble; conditions: cell cycle stage: G1/S
[2] = system: HeLa Kyoto; assay: solubility change mitosis vs G1/S (difference of NP-40 vs SDS log2 ratios) (log2 ratio difference); higher = more soluble in mitosis
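Wherever solubility change mitosis vs G1/S (difference of NP-40 vs SDS log2 ratios) is given: synchronized HeLa Kyoto cells (double thymidine block for G1/S, nocodazole release for mitosis), protein amounts in NP-40 versus SDS lysates quantified by mass spectrometry, three biological replicates.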
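Wherever solubility in G1/S (NP-40 vs SDS abundance) is given: HeLa Kyoto cells arrested at G1/S by double thymidine block, proteins quantified by TMT10plex mass spectrometry in mild NP-40 versus SDS extracts, three biological replicates.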

Row | Sequence | solubility in G1/S (log2) [1] | solubility change mitosis (log2) [2]
1 | MSYRRELEKYRDLDEDEILGALTEEELRTLENELDELDPDNALLPAGLRQKDQTTKAPTGPFKREELLDHLEKQAKEFKDREDLVPYTGEKRGKVWVPKQKPLDPVLESVTLEPELEEALANASDAELCDIAAILGMHTLMSNQQYYQALSSSSIMNKEGLNSVIKPTQYKPVPDEEPNSTDVEETLERIKNNDPKLEEVNLNNIRNIPIPTLKAYAEALKENSYVKKFSIVGTRSNDPVAYALAEMLKENKVLKTLNVESNFISGAGILRLVEALPYNTSLVEMKIDNQSQPLGNKVEMEIVSMLEKNATLLKFGYHFTQQGPRLRASNAMMNNNDLVRKRRLADLTGPIIPKCRSGV [TMOD1] | 0.122 | 0.357
2 | MTDPFCVGGRRLPGSSKSGPGKDGSRKEVRLPMLHDPPKMGMPVVRGGQTVPGQAPLCFDPGSPASDKTEGKKKGRPKAENQALRDIPLSLMNDWKDEFKAHSRVKCPNSGCWLEFPSIYGLKYHYQRCQGGAISDRLAFPCPFCEAAFTSKTQLEKHRIWNHMDRPLPASKPGPISRPVTISRPVGVSKPIGVSKPVTIGKPVGVSKPIGISKPVSVGRPMPVTKAIPVTRPVPVTKPVTVSRPMPVTKAMPVTKPITVTKSVPVTKPVPVTKPITVTKLVTVTKPVPVTKPVTVSRPIVVSKPVTVSRPIAISRHTPPCKMVLLTRSENKAPRATGRNSGKKRAADSLDTCPIPPKQARPENGEYGPSSMGQSSAFQLSADTSSGSLSPGSRPSGGMEALKAAGPASPPEEDPERTKHRRKQKTPKKFTGEQPSISGTFGLKGLVKAEDKARVHRSKKQEGPGPEDARKKVPAAPITVSKEAPAPVAHPAPGGPEEQWQRAIHERGEAVCPTCNVVTRKTLVGLKKHMEVCQKLQDALKCQHCRKQFKSKAGLNYHTMAEHSAKPSDAEASEGGEQEERERLRKVLKQMGRLRCPQEGCGAAFSSLMGYQYHQRRCGKPPCEVDSPSFPCTHCGKTYRSKAGHDYHVRSEHTAPPPEEPTDKSPEAEDPLGVERTPSGRVRRTSAQVAVFHLQEIAEDELARDWTKRRMKDDLVPETARLNYTRPGLPTLNPQLLEAWKNEVKEKGHVNCPNDCCEAIYSSVSGLKAHLASCSKGAHLAGKYRCLLCPKEFSSESGVKYHILKTHAENWFRTSADPPPKHRSQDSLVPKKEKKKNLAGGKKRGRKPKERTPEEPVAKLPPRRDDWPPGCRDKGARGSTGRKVGVSKAPEK [ZNF512B] | -0.767 | 0.776
3 | MTEKAPEPHVEEDDDDELDSKLNYKPPPQKSLKELQEMDKDDESLIKYKKTLLGDGPVVTDPKAPNVVVTRLTLVCESAPGPITMDLTGDLEALKKETIVLKEGSEYRVKIHFKVNRDIVSGLKYVQHTYRTGVKVDKATFMVGSYGPRPEEYEFLTPVEEAPKGMLARGTYHNKSFFTDDDKQDHLSWEWNLSIKKEWTE [ARHGDIB] | 0.0837 | -0.0572
4 | MTHTRRKSLPMLSSGLTGRREPLQMEDSNMEQGVEGVEPGMPESPGHLTGRRKNYPLRKRPLVPEKPKACKVLLTRLENVAGPRSADEADELPPDLPKPPSPAPSSEDPGLAQPRKRRLASLNAEALNNLLLEREDTSSLAGTRRSRAGDPHRSRDRDRATGGWSSSKKRPRLGDLGGGSRDLSPEPAPDEGPRRDGDPAPKRLASLNAAAFLKLSQERELPLRLPRAHAEVDGRSTEPPAPKAPRPKWPKVNGKNYPKAWQGASSGEAAGPPGWQGCPDEPWPSATPCGPSVQPSHQPLSKALESPLGLRPHLPLLMGGQAALKPEPGRPGEESPAPKQELHQPSFPTPQLSPLPMPGNPADYNGLCVGPELTALGSFYLYCGQEGLQCGGYSPCPMLPEGKLSPVAAPHEEGLLLAPSSVPSGTPFQHPPWGSSRYCSSEDTGVNGYSICGVLPLSVTHAGTTCGGCPYKMPFAAEGCRSLGQLEFPLPEAGHPASPAHPLLGCPVPSVPPAAEPVPHLQTPTSEPQTVARACPQSAKPPSGSKSGLRTGSSCRHTARSKAARRPSHPKQPRVQRPRPRRRRRRRTNGWVPVGAACEKAVYVLDEPEPAIRKSYQAVERHGETIRVRDTVLLKSGPRKTSTPYVAKISALWENPESGELMMSLLWYYRPEHLQGGRSPSMHEPLQNEVFASRHQDQNSVACIEEKCYVLTFAEYCRFCAMAKRRGEGLPSRKTALVPPSADYSTPPHRTVPEDTDPELVFLCRHVYDFRHGRILKNPQ [BAHD1] | -0.799 | 0.738
5 | MTKKKRENLGVALEIDGLEEKLSQCRRDLEAVNSRLHSRELSPEARRSLEKEKNSLMNKASNYEKELKFLRQENRKNMLLSVAIFILLTLVYAYWTM [CCDC167] | 0.839 | 0.231
6 | MTPLVSRLSRLWAIMRKPRAAVGSGHRKQAASQEGRQKHAKNNSQAKPSACDGMIAECPGAPAGLARQPEEVVLQASVSSYHLFRDVAEVTAFRGSLLSWYDQEKRDLPWRRRAEDEMDLDRRAYAVWVSEVMLQQTQVATVINYYTGWMQKWPTLQDLASASLEEVNQLWAGLGYYSRGRRLQEGARKVVEELGGHMPRTAETLQQLLPGVGRYTAGAIASIAFGQATGVVDGNVARVLCRVRAIGADPSSTLVSQQLWGLAQQLVDPARPGDFNQAAMELGATVCTPQRPLCSQCPVESLCRARQRVEQEQLLASGSLSGSPDVEECAPNTGQCHLCLPPSEPWDQTLGVVNFPRKASRKPPREESSATCVLEQPGALGAQILLVQRPNSGLLAGLWEFPSVTWEPSEQLQRKALLQELQRWAGPLPATHLRHLGEVVHTFSHIKLTYQVYGLALEGQTPVTTVPPGARWLTQEEFHTAAVSTAMKKVFRVYQGQQPGTCMGSKRSQVSSPCSRKKPRMGQQVLDNFFRSHISTDAHSLNSAAQ [MUTYH] | 0.104 | -0.0934
7 | MTPWLGLIVLLGSWSLGDWGAEACTCSPSHPQDAFCNSDIVIRAKVVGKKLVKEGPFGTLVYTIKQMKMYRGFTKMPHVQYIHTEASESLCGLKLEVNKYQYLLTGRVYDGKMYTGLCNFVERWDQLTLSQRKGLNYRYHLGCNCKIKSCYYLPCFVTSKNECLWTDMLSNFGYPGYQSKHYACIRQKGGYCSWYRGWAPPDKSIINATDP [TIMP3] | -0.478 | -0.0173
8 | MTSFEDADTEETVTCLQMTVYHPGQLQCGIFQSISFNREKLPSSEVVKFGRNSNICHYTFQDKQVSRVQFSLQLFKKFNSSVLSFEIKNMSKKTNLIVDSRELGYLNKMDLPYRCMVRFGEYQFLMEKEDGESLEFFETQFILSPRSLLQENNWPPHRPIPEYGTYSLCSSQSSSPTEMDENES [TIFA] | 0.0872 | -0.224
9 | MTSVTRSEIIDEKGPVMSKTHDHQLESSLSPVEVFAKTSASLEMNQGVSEERIHLGSSPKKGGNCDLSHQERLQSKSLHLSPQEQSASYQDRRQSWRRASMKETNRRKSLHPIHQGITELSRSISVDLAESKRLGCLLLSSFQFSIQKLEPFLRDTKGFSLESFRAKASSLSEELKHFADGLETDGTLQKCFEDSNGKASDFSLEASVAEMKEYITKFSLERQTWDQLLLHYQQEAKEILSRGSTEAKITEVKVEPMTYLGSSQNEVLNTKPDYQKILQNQSKVFDCMELVMDELQGSVKQLQAFMDESTQCFQKVSVQLGKRSMQQLDPSPARKLLKLQLQNPPAIHGSGSGSCQ [DSN1] | 0.0805 | -0.12
10 | MTTKNLETKVTVTSSPIRGAGDGMETEEPPKSVEVTSGVQSRKHHSLQSPWKKAVPSESPGVLQLGKMLTEKAMEVKAVRILVPKAAITHDIPNKNTKVKSLGHHKGEFLGQSEGVIEPNKELSEVKNVLEKLKNSERRLLQDKEGLSNQLRVQTEVNRELKKLLVASVGDDLQYHFERLAREKNQLILENEALGRNTAQLSEQLERMSIQCDVWRSKFLASRVMADELTNSRAALQRQNRDAHGAIQDLLSEREQFRQEMIATQKLLEELLVSLQWGREQTYSPSVQPHSTAELALTNHKLAKAVNSHLLGNVGINNQKKIPSTVEFCSTPAEKMAETVLRILDPVTCKESSPDNPFFESSPTTLLATKKNIGRFHPYTRYENITFNCCNHCRGELIAL [BLZF1] | 0.15 | 0.0573
11 | MTTLTHRARRTEISKNSEKKMESEEDSNWEKSPDNEDSGDSKDIRLTLMEEVLLLGLKDKEGYTSFWNDCISSGLRGGILIELAMRGRIYLEPPTMRKKRLLDRKVLLKSDSPTGDVLLDETLKHIKATEPTETVQTWIELLTGETWNPFKLQYQLRNVRERIAKNLVEKGILTTEKQNFLLFDMTTHPVTNTTEKQRLVKKLQDSVLERWVNDPQRMDKRTLALLVLAHSSDVLENVFSSLTDDKYDVAMNRAKDLVELDPEVEGTKPSATEMIWAVLAAFNKS [GOLPH3L] | 0.202 | 0.0306
